Substitutions are numbered along the chain they refer to.
Columns and labels:
[1] = biological target: T1, full-length human C5L2 expressed on CHO Flp-In cells (human, UniProt Q9P296 1-337); experiment: FACS, CHO Flp-In cells expressing human C5L2, single IgG concentration
T1 construct: also called C5a anaphylatoxin chemotactic receptor 2

Human C1q = biological target: T2, Human C1q (human, UniProt P02745 23-245; P02746 28-253; P02747 29-245); experiment: BLI (Octet), IgG captured via anti-hu Fab CH1 kappa/lambda on SA sensors, C1q titrated
T2 construct: mature; Plasma-derived complex; also called C1q protein; huC1q
Description: 2.0 nm of IgGs diluted in Octet® buffer were captured onto anti-hu Fab CH1 kappa/lambda (BAC) immobilised onto streptavidin (SA) sensors (FortéBIO, Pall Life Sciences). […] All sensorgrams were fitted using Data Analysis Software 9 (FortéBIO, Pall Life Sciences) to determine the apparent affinity. The data was fitted with a steady state model.

[2] = biological target: T3, cynomolgus C5aR_NT-bio peptide (cynomolgus monkey, biotin tag (position not given)); experiment: BLI (Octet HTX), biotinylated peptide on SA sensors, IgG as analyte, 1:1 fit, apparent (bivalent); fast koff
T3 construct: Chemically synthesized linear peptide (Genscript); also called cynomolgus C5aR N-terminal peptide; cynomolgus C5aR peptide
T3 peptide: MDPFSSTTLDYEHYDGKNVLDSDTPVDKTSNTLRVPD

Trypsinogen = experiment: Protein Panel Profiling (3P), MSD ECL, coated antigen, IgG 10 nM
Protocol: (§1) 32 different proteins and controls were coated on two 384-well MSD standard plates at a concentration of 1.0 μg/mL at 4° C. over night. The coating solution was discarded and plates were blocked with 50 μL 3% (w/v) BSA in PBS for one hour at RT on a microtiter plate shaker (˜500 rpm) followed by three washing steps with 50 μL washing buffer (PBS with 0.05% (v/v) Tween 20). IgG samples were diluted to 100 nM and 10 nM in assay buffer (PBS with 0.5% (w/v) BSA, 0.05% (v/v) Tween 20). As controls, isotype control antibody MOR03207 (IgG1f_AEASS) and assay buffer were used. Samples and controls were added at 30 μL/well and incubated for three hours at RT on a microtiter plate shaker. The plates were washed three times and 30 μL detection antibody (ECL-labeled anti-human Fab) were added per well and incubated for one hour on a microtiter plate shaker (˜500 rpm). After washing the MSD plate and adding 35 μL/well MSD Read Buffer T with surfactant, electro-chemiluminescence signals were detected using a SECTOR® Imager S600 instrument (Meso Scale Diagnostics).
(§2) For evaluation, binding signals of the antibody sample to a certain protein were divided by the respective binding signals of the reference antibody MOR03207 resulting in a binding ratio (BR). The cumulative binding ratio (CBR) of all proteins except the controls (25 in total) was then calculated: CBR up to 150 indicates an IgG without detectable unspecific binding. Values above 150 indicates an IgG with increased unspecific binding compared to the reference antibody MOR03207.

anti-human Fab (Dianova) = biological target: T4, anti-human Fab (Dianova); experiment: as above
T4 construct: control of the 3P panel; it captures human IgG as such, so a ratio of 1 means a signal equal to that of MOR03207
Protocol: as §1, §2

Trypsin inhibitor = experiment: as above
Protocol: as §1, §2

Myoglobin = experiment: as above
Protocol: as §1, §2

Ovalbumin = experiment: as above
Protocol: as §1, §2

Fibrinogen (b) = Fibrinogen (b) (bovine); experiment: as above
Protocol: as §1, §2

[3] = biological target: T5, Mouse FcRn p51 [1-297]/AviHis/p14 biotinylated (mouse, UniProt Q61559 22-298; P01887 21-119, biotinylated in vitro with BirA (Avi tag)); experiment: BLI (Octet HTX), biotinylated FcRn on SA sensors, IgG titrated, steady state fit, apparent KD, pH 6.0
T5 construct: Heterodimer; UniProt Q61559 (p51); also called Murine FcRn
T5 chain 1: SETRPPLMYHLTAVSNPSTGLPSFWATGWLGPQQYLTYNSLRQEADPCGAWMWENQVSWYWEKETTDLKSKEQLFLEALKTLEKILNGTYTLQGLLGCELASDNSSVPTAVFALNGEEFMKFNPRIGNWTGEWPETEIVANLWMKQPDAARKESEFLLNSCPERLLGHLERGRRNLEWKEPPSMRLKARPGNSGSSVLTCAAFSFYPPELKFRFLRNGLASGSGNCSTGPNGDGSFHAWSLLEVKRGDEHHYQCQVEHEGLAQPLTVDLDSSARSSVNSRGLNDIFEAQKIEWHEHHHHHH
T5 chain 2: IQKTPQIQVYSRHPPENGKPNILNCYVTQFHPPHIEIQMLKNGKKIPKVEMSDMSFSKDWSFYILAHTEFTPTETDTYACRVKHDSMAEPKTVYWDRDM
Description: (§3) 0.5 nm of biotinylated human, cynomolgus, mouse and rat FcRn were captured on streptavidin (SA) sensors (FortéBIO, Pall Life Sciences). […] All sensorgrams were fitted using Data Analysis Software 10.0 (FortéBIO, Pall Life Sciences) to determine the apparent affinity and the data was fitted with a steady state model.

[4] = biological target: T6, Rat FcRn p51 [1-298]/AviHis/p14 biotinylated (rat, UniProt P13599 23-299; P07151 21-119, biotinylated in vitro with BirA (Avi tag)); experiment: as above
T6 construct: Heterodimer; UniProt P13599 (p51)
T6 sequence 1: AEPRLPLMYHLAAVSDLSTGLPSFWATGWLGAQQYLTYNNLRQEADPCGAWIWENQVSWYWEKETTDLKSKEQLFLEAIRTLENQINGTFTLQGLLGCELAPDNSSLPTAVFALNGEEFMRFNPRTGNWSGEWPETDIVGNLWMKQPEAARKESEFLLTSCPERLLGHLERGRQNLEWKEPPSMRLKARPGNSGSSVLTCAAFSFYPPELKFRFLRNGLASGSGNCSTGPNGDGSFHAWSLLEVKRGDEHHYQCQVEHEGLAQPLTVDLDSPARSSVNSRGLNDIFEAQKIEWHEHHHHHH
T6 sequence 2: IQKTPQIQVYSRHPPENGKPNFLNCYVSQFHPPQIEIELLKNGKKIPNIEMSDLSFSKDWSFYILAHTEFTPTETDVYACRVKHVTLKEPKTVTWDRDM
Description: as §3

[5] = biological target: T7, Human FcRn p51 [1-297]/AviHis/p14 biotinylated (human, UniProt P55899 24-298; P16213 21-119); experiment: BLI (Octet HTX), biotinylated FcRn on SA sensors, IgG titrated, steady state fit, apparent KD, pH 6.0; * deviation from fit model; pH 6.0
T7 construct: Heterodimer of two polypeptides; UniProt P55899 (p51), P61769 (p14) printed
Description: as §3

[6] = biological target: T8, human C5aR_NT-bio peptide (human, biotin tag (position not given)); experiment: SPR (Biacore T200), IgG captured on anti-human-Fc, peptide as analyte, 1:1 fit, monovalent
T8 construct: Chemically synthesized linear peptide (Genscript); also called human C5aR N-terminal peptide; human C5aR peptide
T8 peptide: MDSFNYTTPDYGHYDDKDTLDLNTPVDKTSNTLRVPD

[7] = biological target: T9, engineered version of human C5aR expressed on CHO cells of the PathHunter β-arrestin assay (DiscoveRx) (human, UniProt P21730 1-350); experiment: cell-based or functional assay
T9 sequence (looked up): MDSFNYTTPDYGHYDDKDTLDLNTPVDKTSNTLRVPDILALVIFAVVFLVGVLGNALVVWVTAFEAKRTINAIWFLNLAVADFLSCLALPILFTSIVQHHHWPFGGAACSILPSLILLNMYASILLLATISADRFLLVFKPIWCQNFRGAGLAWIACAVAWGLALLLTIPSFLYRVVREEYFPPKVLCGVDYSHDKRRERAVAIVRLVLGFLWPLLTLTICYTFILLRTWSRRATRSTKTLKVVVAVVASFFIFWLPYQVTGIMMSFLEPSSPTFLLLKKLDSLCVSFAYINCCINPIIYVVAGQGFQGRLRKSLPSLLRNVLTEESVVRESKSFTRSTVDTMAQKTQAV

T2 sequence (P02745 23-245, chain 1 of 3): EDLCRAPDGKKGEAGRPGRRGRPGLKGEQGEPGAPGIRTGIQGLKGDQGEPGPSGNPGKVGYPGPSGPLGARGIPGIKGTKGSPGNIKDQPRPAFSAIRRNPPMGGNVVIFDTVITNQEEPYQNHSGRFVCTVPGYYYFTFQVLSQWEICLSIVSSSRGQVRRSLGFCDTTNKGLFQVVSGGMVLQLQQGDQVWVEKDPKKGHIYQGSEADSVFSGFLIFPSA
T2 sequence (P02746 28-253, chain 2 of 3): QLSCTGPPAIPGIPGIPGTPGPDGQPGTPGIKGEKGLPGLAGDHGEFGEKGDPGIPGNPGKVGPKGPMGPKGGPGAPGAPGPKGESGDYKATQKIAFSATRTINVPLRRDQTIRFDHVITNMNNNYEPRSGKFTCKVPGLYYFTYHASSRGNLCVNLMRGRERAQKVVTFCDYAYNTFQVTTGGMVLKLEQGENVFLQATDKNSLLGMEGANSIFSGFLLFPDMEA
T2 sequence (P02747 29-245, chain 3 of 3): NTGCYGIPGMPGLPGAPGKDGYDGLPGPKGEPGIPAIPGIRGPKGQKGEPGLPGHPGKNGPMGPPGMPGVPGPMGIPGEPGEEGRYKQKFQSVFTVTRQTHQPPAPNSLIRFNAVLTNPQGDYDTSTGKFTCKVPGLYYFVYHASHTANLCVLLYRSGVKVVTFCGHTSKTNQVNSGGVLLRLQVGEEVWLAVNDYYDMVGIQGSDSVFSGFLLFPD
Sequence of Fibrinogen (b) (bovine) (P02672 20-615, chain 1 of 3): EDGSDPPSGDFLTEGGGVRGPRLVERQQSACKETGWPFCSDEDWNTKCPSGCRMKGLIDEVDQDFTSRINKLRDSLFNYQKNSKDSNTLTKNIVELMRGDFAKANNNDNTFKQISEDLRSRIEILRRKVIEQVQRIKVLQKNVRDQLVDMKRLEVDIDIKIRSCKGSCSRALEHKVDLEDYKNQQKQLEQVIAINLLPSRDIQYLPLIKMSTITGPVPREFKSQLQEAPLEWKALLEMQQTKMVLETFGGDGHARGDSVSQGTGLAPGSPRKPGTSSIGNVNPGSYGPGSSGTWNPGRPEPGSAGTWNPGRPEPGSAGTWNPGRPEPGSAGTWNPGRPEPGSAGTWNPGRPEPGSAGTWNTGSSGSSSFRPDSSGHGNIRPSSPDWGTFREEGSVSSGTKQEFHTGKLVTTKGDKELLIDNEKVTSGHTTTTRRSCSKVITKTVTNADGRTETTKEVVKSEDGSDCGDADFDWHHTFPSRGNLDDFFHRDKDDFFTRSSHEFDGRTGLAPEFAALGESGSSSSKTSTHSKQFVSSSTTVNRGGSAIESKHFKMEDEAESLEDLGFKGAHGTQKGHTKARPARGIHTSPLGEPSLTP
Sequence of Fibrinogen (b) (bovine) (P02676 whole entry, chain 2 of 3, further chain): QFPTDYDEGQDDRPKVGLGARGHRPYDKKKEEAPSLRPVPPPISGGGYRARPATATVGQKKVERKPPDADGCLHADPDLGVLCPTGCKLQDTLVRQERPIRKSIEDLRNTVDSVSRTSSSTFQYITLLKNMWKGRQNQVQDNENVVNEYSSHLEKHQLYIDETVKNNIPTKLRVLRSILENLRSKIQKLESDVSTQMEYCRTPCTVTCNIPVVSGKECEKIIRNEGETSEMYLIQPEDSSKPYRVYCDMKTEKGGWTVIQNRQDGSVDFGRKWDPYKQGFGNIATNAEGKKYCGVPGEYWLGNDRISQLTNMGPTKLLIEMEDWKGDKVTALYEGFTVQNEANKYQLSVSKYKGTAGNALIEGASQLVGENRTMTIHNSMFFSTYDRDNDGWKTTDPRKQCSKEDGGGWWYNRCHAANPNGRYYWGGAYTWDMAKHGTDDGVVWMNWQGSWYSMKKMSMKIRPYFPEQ
Sequence of Fibrinogen (b) (bovine) (P12799 25-444, chain 3 of 3, further chain): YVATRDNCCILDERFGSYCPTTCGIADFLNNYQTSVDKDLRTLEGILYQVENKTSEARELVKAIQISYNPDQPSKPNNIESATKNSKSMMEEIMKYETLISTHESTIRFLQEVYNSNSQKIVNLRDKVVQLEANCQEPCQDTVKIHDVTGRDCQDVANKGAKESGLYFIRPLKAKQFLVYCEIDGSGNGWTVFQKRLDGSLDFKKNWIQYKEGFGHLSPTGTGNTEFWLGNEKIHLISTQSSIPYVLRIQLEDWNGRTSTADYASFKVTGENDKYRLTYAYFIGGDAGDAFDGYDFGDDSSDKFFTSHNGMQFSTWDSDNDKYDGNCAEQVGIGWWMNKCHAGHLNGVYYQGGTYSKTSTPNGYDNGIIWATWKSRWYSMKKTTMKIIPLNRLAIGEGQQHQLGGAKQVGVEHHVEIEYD
T1 sequence (Q9P296 whole entry): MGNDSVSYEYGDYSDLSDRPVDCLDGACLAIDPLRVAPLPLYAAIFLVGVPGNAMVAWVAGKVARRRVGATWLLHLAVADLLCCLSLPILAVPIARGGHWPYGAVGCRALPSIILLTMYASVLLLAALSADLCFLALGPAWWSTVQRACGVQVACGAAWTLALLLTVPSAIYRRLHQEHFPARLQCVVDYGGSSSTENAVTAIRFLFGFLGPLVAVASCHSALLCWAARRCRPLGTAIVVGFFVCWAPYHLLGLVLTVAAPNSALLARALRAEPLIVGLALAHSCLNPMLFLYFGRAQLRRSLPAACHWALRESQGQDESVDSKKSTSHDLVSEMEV
Sequence of Ovalbumin (P01012 2-386): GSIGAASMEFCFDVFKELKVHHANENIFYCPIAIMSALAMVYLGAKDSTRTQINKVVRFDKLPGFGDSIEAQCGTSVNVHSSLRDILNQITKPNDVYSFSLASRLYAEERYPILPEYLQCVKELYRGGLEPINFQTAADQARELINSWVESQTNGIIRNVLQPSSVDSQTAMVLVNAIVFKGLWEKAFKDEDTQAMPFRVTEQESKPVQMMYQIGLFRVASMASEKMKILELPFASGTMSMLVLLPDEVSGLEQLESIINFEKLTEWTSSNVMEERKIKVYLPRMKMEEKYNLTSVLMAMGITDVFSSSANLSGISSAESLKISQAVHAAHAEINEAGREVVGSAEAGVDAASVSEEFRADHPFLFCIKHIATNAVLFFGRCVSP
T7 sequence (P55899 other isoform, or with tags, fused parts or gaps limits assumed, chain 1 of 2): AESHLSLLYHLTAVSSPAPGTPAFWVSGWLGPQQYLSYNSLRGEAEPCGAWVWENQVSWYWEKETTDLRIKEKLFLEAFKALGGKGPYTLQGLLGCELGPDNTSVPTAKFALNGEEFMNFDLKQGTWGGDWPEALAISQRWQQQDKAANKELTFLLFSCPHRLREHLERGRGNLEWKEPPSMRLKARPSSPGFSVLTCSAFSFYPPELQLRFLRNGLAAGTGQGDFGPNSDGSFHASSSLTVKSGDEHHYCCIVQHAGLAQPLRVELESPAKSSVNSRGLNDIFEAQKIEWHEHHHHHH
T7 sequence (P16213 21-119 limits assumed, chain 2 of 2): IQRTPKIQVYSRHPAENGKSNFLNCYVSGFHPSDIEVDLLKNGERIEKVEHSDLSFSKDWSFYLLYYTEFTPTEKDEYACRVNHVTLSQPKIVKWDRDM

B1: MAB #2 (antibody, human IgG1, lambda)
heavy: EVQLVESGGGLVKPGGSLRLSCAASGFTFSSYAMHWVRQAPGKGLEWVGRIKSVAQGGTTDYAAHVKGRFTISRDDSKNTLYLQMNSLKTEDTAVYYCARVSHSTFDVWGQGTLVTVSSASTKGPSVFPLAPSSKSTSGGTAALGCLVKDYFPEPVTVSWNSGALTSGVHTFPAVLQSSGLYSLSSVVTVPSSSLGTQTYICNVNHKPSNTKVDKRVEPKSCDKTHTCPPCPAPEAEGAPSVFLFPPKPKDTLMISRTPEVTCVVVDVSHEDPEVKFNWYVDGVEVHNAKTKPREEQYNSTYRVVSVLTVLHQDWLNGKEYKCKVSNKALPSSIEKTISKAKGQPREPQVYTLPPSREEMTKNQVSLTCLVKGFYPSDIAVEWESNGQPENNYKTTPPVLDSDGSFFLYSKLTVDKSRWQQGNVFSCSVMHEALHNHYTQKSLSLSPGK
light: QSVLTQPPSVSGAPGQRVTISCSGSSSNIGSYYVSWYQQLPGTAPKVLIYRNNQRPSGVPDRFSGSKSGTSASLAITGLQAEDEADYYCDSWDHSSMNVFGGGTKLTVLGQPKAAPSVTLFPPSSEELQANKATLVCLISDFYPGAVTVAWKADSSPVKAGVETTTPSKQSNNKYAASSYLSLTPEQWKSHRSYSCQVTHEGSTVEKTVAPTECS
notes: lambda 1 light chain
[1]
  binding result: no binding (tested: 300 nM)
Human C1q
  binding result: no binding (tested: 500 nM (highest C1q concentration))
[2]
  Kd: 0.14 µM
  koff: 0.0189 s⁻¹
  kon: 138000 M⁻¹ s⁻¹
Trypsinogen
  binding ratio (signal / signal of MOR03207): 1
anti-human Fab (Dianova)
  binding ratio (signal / signal of MOR03207): 1
Trypsin inhibitor
  binding ratio (signal / signal of MOR03207): 3
Myoglobin
  binding ratio (signal / signal of MOR03207): 1
Ovalbumin
  binding ratio (signal / signal of MOR03207): 1
Fibrinogen (b)
  binding ratio (signal / signal of MOR03207): 1
[3]
  Kd: 0.0073 µM
[4]
  Kd: 0.01 µM
[5]
  Kd: 0.036 µM
[6]
  Kd: 0.029 µM
  koff: 0.00127 s⁻¹
  kon: 43300 M⁻¹ s⁻¹
[7]
  Activity of human C5a EC50 (nM) in presence of 50 nM anti-C5aR antibody, β-arrestin recruitment: 37 nM
  x fold reduced activity of C5a in presence of anti-C5aR antibody (50 nM): 12.8 fold

B2: MAB #1 (antibody, human IgG1, lambda)
heavy: B1 heavy with V54K, H103F
light: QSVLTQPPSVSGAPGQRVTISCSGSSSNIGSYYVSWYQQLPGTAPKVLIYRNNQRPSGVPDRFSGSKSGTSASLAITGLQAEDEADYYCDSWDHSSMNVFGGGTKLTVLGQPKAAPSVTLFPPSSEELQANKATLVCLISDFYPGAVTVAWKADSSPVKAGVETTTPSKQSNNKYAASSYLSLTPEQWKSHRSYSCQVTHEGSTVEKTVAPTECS
notes: lambda 1 light chain, VH3-15 framework
[1]
  binding result: no binding (tested: 300 nM)
Human C1q
  binding result: no binding (tested: 500 nM (highest C1q concentration))
[2]
  Kd: 0.063 µM
  koff: 0.0108 s⁻¹
  kon: 171000 M⁻¹ s⁻¹
Trypsinogen
  binding ratio (signal / signal of MOR03207): 1
anti-human Fab (Dianova)
  binding ratio (signal / signal of MOR03207): 1
Trypsin inhibitor
  binding ratio (signal / signal of MOR03207): 2
Myoglobin
  binding ratio (signal / signal of MOR03207): 1
Ovalbumin
  binding ratio (signal / signal of MOR03207): 1
Fibrinogen (b)
  binding ratio (signal / signal of MOR03207): 1
[3]
  Kd: 0.0043 µM
[4]
  Kd: 0.0057 µM
[5]
  Kd: 0.009 µM
[6]
  Kd: 0.036 µM
  koff: 0.00179 s⁻¹
  kon: 50100 M⁻¹ s⁻¹
[7]
  Activity of human C5a EC50 (nM) in presence of 50 nM anti-C5aR antibody, β-arrestin recruitment: 37 nM
  x fold reduced activity of C5a in presence of anti-C5aR antibody (50 nM): 12.8 fold

— patent US20240400657A1 (MorphoSys, published 2024)
